This note sets out measurements from patent US20140100172A1 (MALLINCKRODT, published 2014).

Sequences and labels used below:
B1: human chemokine receptor type 4 (CXCR4) (receptor, UniProt P61073 1-352, looked up)
chain: MEGISIYTSDNYTEEMGSGDYDSMKEPCFREENANFNKIFLPTIYSIIFLTGIVGNGLVILVMGYQKKLRSMTDKYRLHLSVADLLFVITLPFWAVDAVANWYFGNFLCKAVHVIYTVNLYSSVLILAFISLDRYLAIVHATNSQRPRKLLAEKVVYVGVWIPALLLTIPDFIFANVSEADDRYICDRFYPNDLWVVVFQFQHIMVGLILPGIVILSCYCIIISKLSHSKGHQKRKALKTTVILILAFFACWLPYYIGISIDSFILLEIIKQGCEFENTVHKWISITEALAFFHCCLNPILYAFLGAKFKTSAQHALTSVSRGSSLKILSKGKRGGHSSVSTESESSSFHSS
notes: whole, on cells; also called CXCR4 receptor; CXCR4 chemokine receptor

Like-named read-outs stand apart in the source and are kept apart here. Square brackets hold non-standard residues; d marks the D form. * marks the point of attachment. 2Nal = N[C@@H](Cc1ccc2ccccc2c1)C(=O)O; NMeR = CN[C@@H](CCCNC(=N)N)C(=O)O; Dap = NC[C@H](N)C(=O)O; nal = not defined here; 125I = [125I]*

Assay [1] deals with T1, recombinant human SDF-1α (stromal cell-derived factor 1α) (human, UniProt P48061-2 22-89).
T1 construct: also called SFD-1α
Nature of the assay: competitive radioligand binding on CXCR4-expressing cells.

Assay [2] concerns the target B1. Nature of the assay: radioligand binding on Jurkat and CMS5/CXCR4 cells.
Assay [3] addresses B1. The assay is described as follows: saturation radioligand binding, Jurkat and CMS5/CXCR4 cells.
The target of assay [4] is B1. Nature of the assay: competition with 125I-CPCR4 tracer on CXCR4-expressing cells.
In assay [5] the target is B1. Described as above. This is another data set of the same source.
Assay [6] deals with B1. The assay is described as above. The source holds these as a separate data set.
In assay [7] the target is B1. Described as above. The source holds these as a separate data set.

Turning to B1, the binding result in assay [1] is listed as “binds”.
With cyclo([dY](125I)RR[2Nal]G) (also called radiolabeled CPCR4) [125I-CPCR4], the Kd in assay [2] is 0.4 nM; in assay [3], 0.3 to 0.4 nM.

B2: cyc[D-Tyr-His-Arg-Nal-Gly] (peptide)
peptide: cyclo([dY]HR[2Nal]G)
SMILES: N=C(N)NCCC[C@@H]1NC(=O)[C@H](Cc2c[nH]cn2)NC(=O)[C@@H](Cc2ccc(O)cc2)NC(=O)CNC(=O)[C@H](Cc2ccc3ccccc3c2)NC1=O
B2 had an IC50 in assay [4] of 30 nM.

B3: cyc[D-Tyr-(Me)Arg-Arg-Nal-Gly] (peptide)
peptide: cyclo([dY][NMeR]R[2Nal]G)
SMILES: CN1C(=O)[C@@H](Cc2ccc(O)cc2)NC(=O)CNC(=O)[C@H](Cc2ccc3ccccc3c2)NC(=O)[C@H](CCCNC(=N)N)NC(=O)[C@@H]1CCCNC(=N)N
notes: also called OD1
B3 registered a 50% inhibitory concentration (IC50) in assay [5] of 23 nM.

B4: cyc[D-Tyr-Arg-Arg-nal-Ala-Gly] (peptide)
peptide: cyclo([dY]RR[nal]AG)
modifications: reading uncertain; also: printed as cyc[D-Tyr-Arg-Arg-nal-Ala-Gly]
notes: differs by nal against Nal; also called BL 40
In assay [6], B4 registered an IC50 of around 1000 nM.
In assay [5], cyclo([dY]R[NMeR][2Nal]G) (also called OD3) [cyc[D-Tyr-Arg-(Me)Arg-Nal-Gly]] gave an IC50 of 31 nM.
In the case of cyclo([dY]RR[2Nal][Dap]G) (not fully specified (residue 5); printed as cyc[D-Tyr-Arg-Arg-Nal-Dap(FP)-Gly], also called BL 58; BL58) [cyc[D-Tyr-Arg-Arg-Nal-Dap(FP)-Gly]], the IC50 in assay [7] is around 1000 nM.
